Patent EP4755393A1, “USE OF PROTON PUMP REGULATOR IN PREPARATION OF DRUG” (Shanghai Quietd Biotechnology Co., Ltd., priority 2023, dated 2025)
Ends that are not written are not given here.

What was measured:
Male SD rats [1] = test: TTC staining of infarct volume after MCAO; type: in vivo; conditions: 5 mpk, from 3 days prior to surgery once daily plus doses on day of surgery, 24 h after MCAO, vs Model + QD202 placebo, FIG. 17
From the text: (§1) Experimental protocol: Male SD rats (260-280 g) were randomly assigned to the following groups: Sham + QD202 placebo group (n=6), Model + QD202 placebo group (n=6), positive control group (Edaravone-5 mpk, n=6), QD202-1 mpk group (n=6), QD202-3 mpk group (n=6), QD202-5 mpk group (n=6). The sham group served as the sham-operated group, while rats in the model group were subjected to Middle Cerebral Artery Occlusion (MCAO) for model establishment. For the edaravone-treated group, administration was initiated 3 days prior to surgery, once daily; on the day of surgery, a total of […] were given (30 min before surgery, 30 min after surgery, and 60 min after surgery). Rats in the QD202 groups received a single dose at 30 min after surgery. At 24 h postoperatively, neurological function was scored according to Table 3. Subsequently, the whole brain tissues of the rats were harvested for TTC staining to evaluate the infarct volume. […]

Male SD rats [2] = test: Neurological function scoring after MCAO (Middle Cerebral Artery Occlusion); type: in vivo; conditions: 5 mpk, from 3 days prior to surgery once daily plus doses on day of surgery; 24 h after MCAO; vs Model + QD202 placebo; FIG. 16
From the text: as §1

HT22 cells = test: Quantitative detection of ROS (DCFH-DA) in the oxygen-glucose deprivation (OGD) cell model; type: cell-based; conditions: Mus musculus, HT-22, OGD 16 h, 24 h reoxygenation, OGD plus vehicle = 100%, mean ± standard deviation, read-out: inhibition rate of ROS
Method: Cell culture: Mouse hippocampal HT22 cells were cultured in DMEM and 10% serum at 37°C in a 5% CO2 incubator.
Oxygen-glucose deprivation (OGD) cell model: HT22 cells were seeded at a density of about 1 ×10^5 into 96-well plates and cultured for 24 h in a 37°C incubator with 5% CO2/95% air in DMEM and 10% serum. After placing HT22 cells in glucose-free medium, they were transferred to a sealed container containing a 5% CO2/95% N2 mixture and incubated at 37°C for 16 h. The glucose-free medium was then replaced with a normal medium containing glucose, and the mixture was incubated for 24 h in a 37°C incubator containing 5% CO2/95% air for reoxygenation.
Experimental grouping: Normally cultured HT22 cells were used as the control group. […] After 24 h of reoxygenation, quantitative detection of ROS was performed.
Quantitative detection of ROS: Reactive oxygen species were detected using the Beyotime reactive oxygen species detection kit and the fluorescent probe DCFH-DA. […] Observation was performed under a fluorescence microscope, followed by quantification of the average fluorescence intensity using Image J software.
Data analysis: Three parallel experiments were performed. The average fluorescence intensity of the OGD plus vehicle group was set as the standard value of 100% for normalization of the fluorescence intensity of cells in each group. […]

hATP6V1B2 = hATP6V1B2 (Homo sapiens, UniProt P21281); test: Co-immunoprecipitation of Myc-tagged hATP6V1B2 with GFP-tagged QD202 and site mutants (HEK 293 lysates, western blot); type: binding; conditions: expressed from pEGFP-N3 plasmids in HEK 293, anti-GFP IP, FIG. 7A, 7B
Method: Expression plasmids of hATP6V1B2, QD202, site-mutated QD202(D15A), site-mutated QD202(V16A), site-mutated QD202(P13A), and site-mutated QD202(V14A) were constructed respectively. The hATP6V1B2 was co-transfected into HEK 293 cells with the expression plasmids of QD202, site-mutated QD202(D15A), site-mutated QD202(V16A), site-mutated QD202(P13A) and site-mutated QD202(V14A), respectively, and cellular proteins were extracted 48 h after transfection. Table 1: Plasmid sequences
Protein extraction was performed using Pierce RIPA lysis buffer. Taking cells in a 60 mm culture dish as an example, 500 µL of Pierce RIPA lysis buffer containing protease inhibitors was added. Cells were collected and transferred to a clean 1.5 mL EP tube using a cell scraper. After mixing for 1 h on a rotary mixer at 4°C, the cells were centrifuged at 13,000 rpm at 4°C for 10 min to remove cell debris. The hATP6V1B2 was equally divided into […], which were then mixed separately with the cell lysates transfected with QD202, site-mutated QD202(P13A), site-mutated QD202(V14A), site-mutated QD202(D15A), and site-mutated QD202(V16A), 30 µL of the supernatant was taken and mixed with 10 µL of 4× loading buffer, followed by boiling at 100°C for 5 min and storage at -20°C; 2 µL of the antibody (Anti-GFP, Roche, 11814460001) was added to the remaining 470 µL of the protein lysate, and the mixture was incubated overnight (about 16-18 h) on a rotary shaker at 4°C. 30 µL of Protein G Sepharose beads (Roche, 11243233001) were placed in an EP tube and washed three times with Pierce RIPA lysis buffer to eliminate interference from the original stock solution. The protein that had been incubated with the antibody overnight was added to the Sepharose beads, followed by mixing and incubation at 4°C for 2 h to ensure sufficient binding between the antibody and the protein. The mixture was centrifuged at 4000 rpm for 1 min. The supernatant was aspirated off, followed by the addition of 600 µL of Pierce RIPA lysis buffer. The tube was gently inverted, followed by centrifugation to collect the supernatant. The above steps were repeated three times to wash away non-specifically bound proteins. Finally, 30 µL of 1×loading buffer was added, the mixture was mixed well, heated at 60°C for 20 min to denature the protein, and then stored at -20°C. The protein was examined by western blot (Myc-Tag (9B11) Mouse mAb, CST, 2276S; Anti-GFP, Roche, 11814460001).
The hATP6V1B2 was co-transfected into the host cell line HEK 293 with the expression plasmids of QD202, site-mutated QD202(P13A), site-mutated QD202(V14A), site-mutated QD202(D15A) and site-mutated QD202(V16A), respectively. […] It is therefore hypothesized that valine at position 16 of QD202 is one of the key amino acids for the binding between hATP6V1B2 and QD202, whereas proline at position 13, valine at position 14 and aspartic acid at position 15 can be replaced with alanine, as illustrated in FIG. 7A and FIG. 7B.

Chain of hATP6V1B2 (P21281 whole entry): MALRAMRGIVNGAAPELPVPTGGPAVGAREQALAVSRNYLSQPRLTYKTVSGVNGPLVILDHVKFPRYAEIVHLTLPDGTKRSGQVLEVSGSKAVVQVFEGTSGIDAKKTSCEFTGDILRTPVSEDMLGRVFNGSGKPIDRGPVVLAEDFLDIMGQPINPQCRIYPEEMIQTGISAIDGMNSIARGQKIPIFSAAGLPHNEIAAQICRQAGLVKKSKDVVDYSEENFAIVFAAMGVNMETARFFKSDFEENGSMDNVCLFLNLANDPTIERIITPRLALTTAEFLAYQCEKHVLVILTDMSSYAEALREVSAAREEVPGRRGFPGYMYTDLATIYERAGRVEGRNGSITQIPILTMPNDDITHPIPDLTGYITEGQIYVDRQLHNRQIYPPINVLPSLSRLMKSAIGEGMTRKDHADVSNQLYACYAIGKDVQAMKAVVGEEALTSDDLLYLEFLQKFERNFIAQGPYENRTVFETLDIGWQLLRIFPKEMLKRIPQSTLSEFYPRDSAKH

CC1=NN(c2ccccc2)C(=O)C1 [Edaravone]
infarct volume (Male SD rats [1]): significantly lower than that of the Model + QD202 placebo group, with a statistically significant difference (p<0.01)
neurobehavioral score (Male SD rats [2]): significantly lower than that of the Model + QD202 placebo group with a statistically significant difference (p<0.01)
inhibition at 200 µM (HT22 cells): 63.8 ± 10.9%

QD202(D15A): QD202 in which aspartic acid at position 15 was substituted with alanine; expressed from pEGFP-N3 plasmid (YGRKKRRQRRRSPVAVVCS; left off: large carriers)
binding to Myc-tagged hATP6V1B2 (co-immunoprecipitation) (hATP6V1B2): also bind to

QD202(P13A): QD202 in which proline at position 13 was substituted with alanine; expressed from pEGFP-N3 plasmid (YGRKKRRQRRRSAVDVVCS; not fully specified)
binding to Myc-tagged hATP6V1B2 (co-immunoprecipitation) (hATP6V1B2): also bind to

QD202(V14A): QD202 in which valine at position 14 was substituted with alanine; expressed from pEGFP-N3 plasmid (YGRKKRRQRRRSPADVVCS; not fully specified)
binding to Myc-tagged hATP6V1B2 (co-immunoprecipitation) (hATP6V1B2): also bind to

QD202(V16A): QD202 in which valine at position 16 was substituted with alanine; expressed from pEGFP-N3 plasmid (YGRKKRRQRRRSPVDAVCS; not fully specified)
binding to Myc-tagged hATP6V1B2 (co-immunoprecipitation) (hATP6V1B2): significantly reduced
